In US20110123543A1:

Legend:
[1] = biological target: recombinant mouse TNFα (mouse) (UniProt P06804); test: cell-based or functional assay
[2] = biological target: recombinant human TNFα (rhTNF, Dainippon, Osaka, Japan) (human) (UniProt P01375); test: Scatchard analysis; direct binding of 125I-labelled antibody to rhTNFα immobilized in a 96-well plate
Chain of UniProt P01375 (P01375 77-233 limits assumed): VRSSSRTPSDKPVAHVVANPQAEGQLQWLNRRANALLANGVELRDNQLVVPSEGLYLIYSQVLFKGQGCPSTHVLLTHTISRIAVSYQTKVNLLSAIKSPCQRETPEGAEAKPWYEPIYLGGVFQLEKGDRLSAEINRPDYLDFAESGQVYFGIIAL

Chain of UniProt P06804 (P06804 80-235 limits assumed): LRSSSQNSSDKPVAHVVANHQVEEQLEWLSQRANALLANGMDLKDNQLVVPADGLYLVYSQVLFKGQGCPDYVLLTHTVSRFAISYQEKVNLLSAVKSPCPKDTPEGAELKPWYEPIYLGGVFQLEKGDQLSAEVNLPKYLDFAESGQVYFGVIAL

| Ka [2] | Substance | neutralizing titre: concentration required to cause 50% inhibition of killing of WEHI 164 cells by trimeric recombinant murine TNFα (60 pg/ml mouse TNFα) [1] |
| --- | --- | --- |
|  | TN3-19.12, neutralizing hamster IgG1 anti-TNFα/β monoclonal antibody | 62 ng/mL |
|  | TNF receptor/IgG fusion protein p55-sf2 (from UniProt P19438 30-211; P01857 1-330) (Fc fusion) | 0.6 ng/mL |
| 1.8e+09 M⁻¹ | chimeric A2 (cA2), chimeric monoclonal anti-TNF antibody |  |
